The domain aggregation screens of Martell et al. (2025)

Test: soluble fraction after stress (log2 fold change); higher = more stays soluble; pooled small domains, quantitative proteomics
Details: stress: pH 4
Procedure, shortened: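 Following acid stress at pH 4, the amount of each small protein domain still soluble was measured in pooled custom libraries by high-throughput quantitative proteomics. Its fold change, on a log2 scale, is higher when more of the domain stayed soluble. This fold change is taken as a measure of aggregation propensity.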

Row | Sequence | soluble fraction (log2)
1 | HMQRRHESTPIPADFDYAAVRGLSAEVQQKLERVRPLSIGQAQRIPGMTPAAISLLLVHLERQRRSRV | 0.00221
2 | HMQRSVKNNDTVQVHYTGKLTNGQIFDSSIDKQPLEFQLGQGQIIPGFEKGLIDMTVSEKKTITIPEAEAY | 0.133
3 | HMQSAEMTLDREGQPVQVRVELTGNEARITFLSDQEQTREALDAGMAQLRELLEQQGMVLAGVTV | -0.491
4 | HMQSDQLSDREREILRLIGSGRTNQEISQELQVSGSTVRTHLQHILDKLGLENRNQAVLYAIRIGLAAPP | -0.372
5 | HMQSHGSRIWTDITGNFTREASFIELAEGKVTLQLTDGRRTIISFEILSKKDQEYVLDIGDS | -1.95
6 | HMQSKDDLLDTFRVVKGNAALLNDQNKKLIRSLKVSSFGFTGITDQAAEVKKEMPDVLLEKASIEDILF | -0.595
7 | HMQSLAAKINGYIVAQRTSIAAIAKEIGYSRVTVSRYLAGKYDSDPTGIEAKLAAFLAGQTGEE | 0.114
8 | HMQSNIHELQKKLNEALQALSEDHRAVVTMFDIQGMPHAEISKILGVSEGTVRSRLYYAHQQLQGHL | -0.663
9 | HMQSRYALLAGMLRARITEGDWVPGSAIPAETVLAKEHGVALGTMRQAIALLVSQGLLERQHGRGTFVRS | -0.0211
10 | HMQSSDQTDNIYENAVSIVLETGKASASHLQRVLGIDYNLAAHLIDKMEDGGLLSPPNYLGHRDVYGYT | -1.06
11 | HMQTFNADDIEPIIKEILQENPKAISDFLTGNENVVKFLLGQVMKNTKGKANPKVIEELLINQLRELNN | -0.663
12 | HMQTGYHVRITASTLNVRRDHSASSAVATQVRRGEVYTIVDEYNNGGTLWGKLKSGAGWIALKYTQS | ≥ 0.43
13 | HMQTTITITNTVTGQKAQFPPPFNPMSLSKIGVDETFEKEVFVDGVDTFGYGLDGYLTFYELKDFLRSYQ | -2
14 | HMQVEYTRGELLQDLKEENVLYATITPSRETPTGEVDFVFKDKSIKTLYVTDVSEIEGLLMDYGIDPEVKK | -0.367
15 | HMQVITEPFQEKYREFINMSTVTQRLEERETLSFTAQTVEGRWLTIIIVPQGYDKTGKLSTVLVANR | 0.111
16 | HMQVSDEGAIQLLVQKAIEENPQAIEAFRGGKTSALGPVVGWVMKQSKGAANPTMVKTLLEKAI | 0.378
17 | HMQVVVEKSKEKVIISGNQYYIHIVKKGETAFSIAKAYGITVDELVKNNPSAATVLKEGQALRIPVVE | 0.22
18 | HMQYDESSQLGERFLNQALNALKADPDKVGDAQWEKLLKENSAKSRQEVLADIGLGKQLAIVIARELLS | -0.37
19 | HMQYPSSLDSRAKQSLYDNLERNEILALALDNVIQSNKLDGWRDGGIKERKLRLAINNLLKNDEHTDNIME | -0.284
20 | HMQYQIITENGKQYYLYTVQKSEGFYSIGKRFEITNDEIIKANPEAALGLKLGQVLKIPVYK | -0.131
21 | HMRAAKSEDTRTRLIEGGMALFGQKGYNATGIKDITDAAGVPKGSFYNYFASKEDFGAEIIHSY | -0.0559
22 | HMRAEELEQFVERLKNEVMNNFPLKELSDNELREKIENLVEIRLANVYVSIEQRVAIAEQIYSSIR | -0.633
23 | HMRAERVQITDPYIELHTGPGRGFPIFFVAPREQWISIELRHTDWFKVRAVGGQVGWVQRKQLEST | -0.295
24 | HMRAGHDFEALKHIESSLDKHLTDEGIKIKSEKRGAIVARWYQSHVEGREVTDDDVHTWIELFF | -2.2
25 | HMRAPIGFRISNRRKSLKISQVALARLVGISPSYLNLIENNKRDVGGALLQRVALHLNIDIDDL | -0.219
26 | HMRARTLSTTGGESLLTLAESLYPDDDRARARFIEATAAANPKLFADIAALTRVLPAGTTLRMPDLRA | 0.129

Row | Sequence | soluble fraction (log2)
27 | HMRARTQYWPFVEEKAAELKLPLHLVNVEPLFGEQKVVVHYTANGRIDFRELVHLLARRFHARIEMR | 0.0493
28 | HMRATLTDETARVVQEPTSESISLTSLRKGEEFEIGKVIRKKKEVWVTVTTSSGVKGYISGDTHIF | ≥ 0.43
29 | HMRAVFEQLRIGQTLAGVVKAQEKGFSLVEIDGQTVAMRLPHPAAVGDTLRLRFAGHMPQAVFLLES | -0.178
30 | HMRAVPSIAFVTQKLIEQGVTMEQLVRSLLLDHEEYENDDSLERTADELFGKARMIISNYTPE | -1.04
31 | HMRDADRYAFMQENVEDFAKDMRRKHMTYDVLYEEYIRRTDNPYGYTQFKAIVQEYEKNHDYK | 0.253
32 | HMRDGYEKPTEVGEGGRNPAMLSYIGHLRAKGHLSEEDIRSMAHGFNATTFDPPLDRDEVDGLVSRY | ≥ 0.43
33 | HMRDITAQSNASELYFEERDLEAFIEKLERLYPEIRYVNRLMIHSWGQQVVRFFDPDGNLIEVGTP | -1.28
34 | HMRDKTMLGNVIRTRRKKMNLTLEELSKQVGITSGGLSQIERGLVDPSLSVLRRISRALNLPMNVMFSE | ≥ 0.43
35 | HMRDLAEAETILDALPTRLRKIVRWRHLEGLSQTEIAARLEISQMHVSRLYRRAISMIHASLADD | -0.843
36 | HMREEQELFRKLLEVNGIGPKVAAGMLAGGRPEDVVSAIRREDVAWLTKLPGIGRKTAQRIVLDLKDKLD | 0.165
37 | HMREPQMVTVNGDKVTHGHAYRSNVNPEDWYFTARINGQQLKPQKMEPADVAAYDKKEIGVPELMQR | -0.0539
38 | HMRESPYRRVAKFLLLIGTAEAAKIVSRLDQDQVEKVMLELSGIRSVPRDEATVILAEFESLLQQAR | -1.2
39 | HMRESRLFQILYQLLTKKKVTAANLAKQFEVSVRTIYRDIDALSSSGIPIYASQGKNGGIQLDEDF | -0.999
40 | HMRETELPVTIISAGRILAENLHLAGRDGGWLEAELKRRSLTAEQVLLLTVDAAGTVYLVRKEDL | -0.617
41 | HMREWPLWEIFIRGQHGLNHRHVGSLHAPDAAMAIGNARDVYTRRNEGVSIWAVRSADVVASVPSE | -1.44
42 | HMRGADNAASILKEVGPHPEDGKPITVRSGRYGPYVKHGTTNATLPKDIKPEEITLDEAIALINERVAKG | -0.143
43 | HMRGGKGTVPDVTGMDAAAAVRILEKAGMNVAYIRGAGFVAEQTPAAGTKLKKGDKAYITLSWK | 0.181
44 | HMRGGWESLTDREREIAVLAAEGHSNRTIASTLFISDRTVQSHVSRALRALGVDSRTGIPSLVTTATR | -0.217
45 | HMRGWGTVKRRTPKSGRYRASYIGPDGKRYAADHTYAAKVDADAWLSSERALITAGVWTPPTDRVT | -0.0591
46 | HMRHLSVPSQDTQQVLQRLKVELALPEGARVRSDPSDPGRRLIPFTESVPQEMIDQYPVVSINI | -0.458
47 | HMRIAGIDIPDNKRGEVALTYIFGIGRSSSKKILKSAGIDSDKQIGKWTDDESNLVRKLIRDEYTIEGDL | -0.484
48 | HMRIASANAIYDELLNKRDDAKLAELKQEDINLYALYILQNGSADERAALENTQGIDVVLKEIINLQNG | -0.416
49 | HMRIGINDRIHEIVDVLRLKKSTPFEDLFSGLVTRFDLVITFLALLEMGKLRLLRLYQTDPLAPLHVEYTG | 0.0416
50 | HMRILDFPALKTEFDQLTKDLMAKYPEDGADRVRAIIETVLGPGKKVGALQPHQAELLAEVNTSLKANL | -0.0969
51 | HMRILGIDPGTRITGYGIIDIEGNRLRHVDNGIIKTRSSDALPLRLKVIYDGLTAVLKQYSPQAV | -0.629
52 | HMRIQTVDYNTFISMVEDGKVDAAEIQQQENRILFSDQDQKVYKTAMVPDDDLTQRLLDAGVSTNG | -0.837

Row | Sequence | soluble fraction (log2)
53 | HMRISKRQLILESAAAIINEKGADYLTLDAVAQRAGISKGGLFYHFKSKDELIKELVNYANN | -1.57
54 | HMRISLKAQVYEYLKQAIINGDLKVGEIYSEQYFADKLSISRTPVREAILQLQHENMVEVKANRGIIVK | -0.406
55 | HMRITTKNYFKAISEVGFENLPEVLKKSHLVIEEKTNKGNDWGIYENDAEAKKVFDLAFDKLEEFIDRKED | -0.203
56 | HMRIVQTDYRNFLSQVESGAVRSVQIDETQIRYTALDSGGKEIVYNTGKVDDPGLVNRLYDAGVEFSQVIP | -1.23
57 | HMRKATEVPFTAFKDSIENSHGKLSKAGLARHLADEYGMSQRNMERRINNLIDNKTIKYGNEGGLVWIG | 0.22
58 | HMRKDWTPGAFVEAFVNDTPATRSTILAKAVSAGLSRWAADNLLRTADNDGLMVRQGSGKRNEPFTYRRGP | 0.22
59 | HMRKEEFIRELVLELKQNVSEQVILEQKRFYEEYILTEVRGGKTEEEVIASLSEPRLLAKSIIDAAEAGGD | -1.5
60 | HMRKKDGEAYVLPRPLKKGDSVLIYDIDKKGTVLQPPEKGGKTALIQAGIIQTRVPVSNLRLLE | -0.0646
61 | HMRKKIIAQTLEEIRKSKGYSQKQVAAFIKVKPTTYNTYESGRTEPPAEILVRLSYLYRTPVDTLVQRDR | 0.226
62 | HMRKMNDAVFYVEMSRPKRGYYTATYKLITRNPNSLPEHEITRRFFQMLEETIRKNPPYYLWTH | 0.104
63 | HMRKPISQEIVDEVLKLAKNNPDWGYDRIAGVMKYLKYDVSATTVRHILDDNGIVPDPERRLR | -0.0119
64 | HMRKRLLQLVHIGKSQLGMDDETYRSLLSQQFYQNSAKNISYSELVKLVKILQQKGAKIRLPH | 0.262
65 | HMRKVVLEEKEANYYAEPNSESELLGVLKRGIHLTVTDVKKEAGSDGWVKLVHPDGQEGWISGRARIRV | -0.209
66 | HMRKYKIKEELPDNIYKIIQDNPGIVQKDIYDILGREYQQNISSYIYSMDKNGVIKRDKHGNSYKLYL | -1.01
67 | HMRLATSELVYRIRALIRDQELQPGERLGSERALAQSLGISRSDLRMALAVLEASHEVIRKIGRAGGIVVS | ≥ 0.43
68 | HMRLHSSGEDYLKAIFILEAQHSSVRSVEVAEYMNVSKASVSHAVALLKKNGFLKMNQDYDLTER | -0.906
69 | HMRLIALPSVTDISIRQAEATLMSIGIKVSSIQYAPSEYKDLVLEVKYRGQSIIQGAKIPEGSSVVLVAGN | -0.122
70 | HMRLPLYLALAQTLRQEIDAKQYKIGAHLPPEDQLVVKYGVSRHTVRQALQELKNEGLITSKAGIGTIVSS | 0.154
71 | HMRLPQEVWEKIRAAYEAHGLSFSELAEMYGVNKSNISRRAKAEGWNQAETQRLITATVENE | 0.211
72 | HMRLREETRKVDKTGLIQVDGRHYRVPDEYSQKDVQILMDDNSIMVYRKGDFVIELDKETSVYMPH | -1.02
73 | HMRMETRILTADESGIRLDAFLASRLAVSRSLAASLIDDGNVTLNGTVPKKKTAVNVGDILEVAMP | 0.22
74 | HMRMLTKRRQDLLLELLEERGSITVSEVKDMLDASESTIRRDITALDEEGKLVKVFGGAVAAR | -0.465
75 | HMRMSRSARLFDLLHILRSHRRAVSGQALAQQLGISIRTLYRDIASLQAQGAKIEGEPGVGYMLKP | -0.0136
76 | HMRMTKQRQAVLDELTRVTDFRSAQQIFEDLHSQGHRVGLATIYRSLQGLAEDGSVDTLRSSDGESLY | -0.169
